The term Kd denotes the concentration at which binding is half-saturated. Lower therefore signals tighter binding. In general, koff refers to the first-order rate constant of dissociation. A lower koff goes with a long-lived complex. What is called kon is the second-order rate constant of association. A high value points to fast association.

Changes are numbered by the printed parent chain.

The chains are these.
B1: toripalimab Fab H.K65A (Fab, V domains shown)
VH: QGQLVQSGAEVKKPGASVKVSCKASGYTFTDYEMHWVRQAPIHGLEWIGVIESETGGTAYNQKFAGRVTITADKSTSTAYMELSSLRSEDTAVYYCAREGITTVATTYYWYFDVWGQGTTVTVSS
VL: DVVMTQSPLSLPVTLGQPASISCRSSQSIVHSNGNTYLEWYLQKPGQSPQLLIYKVSNRFSGVPDRFSGSGSGTDFTLKISRVEAEDVGVYYCFQGSHVPLTFGQGTKLEIK
notes: heavy chain of Sm3 with this change; numbers count from the chain's first residue; as the light chain of Sm3; source: Brevibacillus, culture supernatant (ammonium sulfate precipitate); not shown: 6xHis, C-terminal, kept; 6xHN, C-terminal, kept
B2: toripalimab Fab H.G66Y (Fab, V domains shown)
VH: B1 VH with A65K, G66Y
VL: B1 VL
notes: as for B1
B3: toripalimab Fab H.T107Y (Fab, V domains shown)
VH: B1 VH with A65K, T107Y
VL: B1 VL
notes: as for B1
B4: toripalimab Fab H.V114A (Fab, V domains shown)
VH: B1 VH with A65K, V114A
VL: B1 VL
notes: as for B1
B5: toripalimab Fab H.T106Y (Fab, V domains shown)
VH: B1 VH with A65K, T106Y
VL: B1 VL
notes: as for B1
B6: toripalimab Fab H.V104A (Fab, V domains shown)
VH: B1 VH with A65K, V104A
VL: B1 VL
notes: as for B1
B7: toripalimab Fab H.T106A (Fab, V domains shown)
VH: B1 VH with A65K, T106A
VL: B1 VL
notes: as for B1
B8: toripalimab Fab H.T107A (Fab, V domains shown)
VH: B1 VH with A65K, T107A
VL: B1 VL
notes: as for B1
B9: toripalimab Fab H.G66A (Fab, V domains shown)
VH: B1 VH with A65K, G66A
VL: B1 VL
notes: as for B1
B10: toripalimab Fab H.M34A (Fab, V domains shown)
VH: B1 VH with M34A, A65K
VL: B1 VL
notes: as for B1
B11: toripalimab Fab H.Y109A (Fab, V domains shown)
VH: B1 VH with A65K, Y109A
VL: B1 VL
notes: as for B1
B12: toripalimab Fab H.F112Y (Fab, V domains shown)
VH: B1 VH with A65K, F112Y
VL: B1 VL
notes: as for B1
B13: toripalimab Fab L.R24Y (Fab, V domains shown)
VH: B1 VH with A65K
VL: B1 VL with R24Y
notes: as the heavy chain of Sm3; light chain of Sm3 with this change; numbers count from the chain's first residue; source: Brevibacillus, culture supernatant (ammonium sulfate precipitate); not shown: 6xHis, C-terminal, kept; 6xHN, C-terminal, kept
B14: toripalimab Fab H.A105Y (Fab, V domains shown)
VH: B1 VH with A65K, A105Y
VL: B1 VL
notes: as for B1
B15: toripalimab Fab H.V104Y (Fab, V domains shown)
VH: B1 VH with A65K, V104Y
VL: B1 VL
notes: as for B1
B16: toripalimab Fab L.R24A (Fab, V domains shown)
VH: B1 VH with A65K
VL: B1 VL with R24A
notes: as for B13
B17: toripalimab Fab H.W110Y (Fab, V domains shown)
VH: B1 VH with A65K, W110Y
VL: B1 VL
notes: as for B1
B18: toripalimab Fab H.G100A (Fab, V domains shown)
VH: B1 VH with A65K, G100A
VL: B1 VL
notes: as for B1
B19: toripalimab Fab H.E33A (Fab, V domains shown)
VH: B1 VH with E33A, A65K
VL: B1 VL
notes: as for B1
B20: toripalimab Fab H.K65Y (Fab, V domains shown)
VH: B1 VH with A65Y
VL: B1 VL
notes: as for B1
B21: toripalimab Fab H.V114Y (Fab, V domains shown)
VH: B1 VH with A65K, V114Y
VL: B1 VL
notes: as for B1

The target of one assay is T1, mouse programmed cell death protein 1 Fc fusion protein (mPD-1-Fc), mPD-1 C60S (aa 25-167) (Mus musculus, UniProt Q02242, stabilised).
T1 construct: not cleaved; source: Expi293F, purified (Protein A, SEC; dimeric fraction); not shown: Fc (human), C-terminal, kept
Nature of the assay: SPR; Carterra LSA; Fab from the ammonium sulfate precipitate of the culture supernatant immobilised on a NiHC200M chip; hPD-1 (1-1024 nM) or mPD-1-Fc (4-1024 nM) as analyte, fourfold dilution series, no regeneration; HBS-EP pH 7.4, 25 °C; medians over the spots of a construct, KD = koff/kon. The settings on record: one partner purified. The method in brief: (§1)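 On a Carterra LSA at 25 °C, duplicate captures of Fabs were made on a NiHC200M chip; the Fabs came from Brevibacillus culture supernatants, were precipitated with ammonium sulfate and were redissolved in HBS-EP. Fourfold series of human PD-1 (1–1024 nM) or mouse PD-1-Fc (4–1024 nM) were passed over without regeneration, with 10 min association and 5 min dissociation. Binders that were not confirmed were assigned kon 10^3 […] and koff 10^−2 s^−1. The kdka model, run with slow- or fast-dissociation settings and keeping the better fit, gave the rates, and KD was taken as koff/kon from the median values for each construct.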
A general note: SPR reads the build-up and loss of mass on a sensor chip optically.
Regarding B1, binding was characterised by a dissociation constant (Kd) of 257 nM, the koff stood at 0.00911 s⁻¹ and the kon is 35400 M⁻¹ s⁻¹.
In the same order, the values of B2 are 393 nM, 0.0111 s⁻¹ and 28100 M⁻¹ s⁻¹.
In the same order, the values of B3 are 137 nM, 0.00432 s⁻¹ and 31600 M⁻¹ s⁻¹.
B4 showed a Kd of 201 nM, a koff of 0.00764 s⁻¹ and an on-rate (kon) of 38100 M⁻¹ s⁻¹.
B5: the Kd came to 140 nM, the koff stood at 0.00601 s⁻¹ and the kon came to 43000 M⁻¹ s⁻¹.
Regarding B6, binding was characterised by a dissociation constant (Kd) of 81.5 nM, the koff was found to be 0.00354 s⁻¹ and the kon turned out to be 43400 M⁻¹ s⁻¹.
Consider B7, for which binding was put at a Kd of 107 nM, the koff was determined as 0.00423 s⁻¹ and the on-rate (kon) is 39700 M⁻¹ s⁻¹.
The corresponding values for B8 are 232 nM, 0.00703 s⁻¹ and 30300 M⁻¹ s⁻¹.
B9 gave a Kd of 223 nM, a koff of 0.00674 s⁻¹ and a kon of 30200 M⁻¹ s⁻¹.
In the case of B10, the Kd was 153 nM, the koff stood at 0.0068 s⁻¹ and the kon was 44300 M⁻¹ s⁻¹.
Regarding B11, the Kd was 49.7 nM, the koff was 0.00179 s⁻¹ and the kon was 36000 M⁻¹ s⁻¹.
Regarding B12, the Kd is 59.7 nM, the koff came out at 0.00308 s⁻¹ and the kon worked out at 51700 M⁻¹ s⁻¹.
B13 gave a Kd of 133 nM, a koff of 0.0047 s⁻¹ and a kon of 35400 M⁻¹ s⁻¹.
B14: binding was put at a Kd of 95.5 nM, the koff worked out at 0.00349 s⁻¹ and the kon is 36500 M⁻¹ s⁻¹.
Molecule B15 came in with a Kd of 96.2 nM, a koff of 0.00366 s⁻¹ and a kon of 38000 M⁻¹ s⁻¹.
The corresponding values for B16 are 198 nM, 0.0079 s⁻¹ and 39900 M⁻¹ s⁻¹.
The corresponding values for B17 are 166 nM, 0.00571 s⁻¹ and 34500 M⁻¹ s⁻¹.
The molecule B18 came in with a Kd of 464 nM, a koff of 0.0353 s⁻¹ and a kon of 76100 M⁻¹ s⁻¹.
In the same order, the values of B19 are 103 nM, 0.00372 s⁻¹ and 36200 M⁻¹ s⁻¹.
The corresponding values for B20 are 299 nM, 0.012 s⁻¹ and 40300 M⁻¹ s⁻¹.
As to B21, binding was put at a Kd of 235 nM, the koff came out at 0.00887 s⁻¹ and the kon stood at 37800 M⁻¹ s⁻¹.

In a further assay the target is T2, human programmed cell death protein 1 (hPD-1) C93S (aa 24-167) (Homo sapiens, UniProt Q15116, C93S).
T2 construct: made as a fusion with a TEV site and human Fc; the Fc was cut off with TEV protease; source: Expi293F, purified (Protein A, TEV cleavage of Fc, SEC; monomer fractions); not shown: Fc (human), C-terminal, cleaved
T2 sequence (Q15116 24-167 C93S): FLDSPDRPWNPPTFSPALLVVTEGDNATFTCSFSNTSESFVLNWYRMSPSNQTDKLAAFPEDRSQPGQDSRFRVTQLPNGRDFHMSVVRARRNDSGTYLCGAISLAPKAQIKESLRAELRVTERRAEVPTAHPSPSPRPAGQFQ
The assay is described as above. The settings on record: one partner purified. The method in brief: as §1
B1 showed a Kd of under 1.5 nM, a koff of under 1e-05 s⁻¹ and a kon of 6670 M⁻¹ s⁻¹.
Turning to B2, the Kd is under 0.85 nM, the koff was under 1e-05 s⁻¹ and the kon was determined as 11800 M⁻¹ s⁻¹.
In the case of B3, the Kd was under 0.315 nM, the koff is under 1e-05 s⁻¹ and the kon worked out at 31700 M⁻¹ s⁻¹.
As to B4, the Kd is under 1.5 nM, the koff is under 1e-05 s⁻¹ and the kon is 6670 M⁻¹ s⁻¹.
The corresponding values for B5 are 0.833 nM, 1.75e-05 s⁻¹ and 21000 M⁻¹ s⁻¹.
The molecule B6 came in with a Kd of 4.51 nM, a koff of 8.98e-05 s⁻¹ and a kon of 19900 M⁻¹ s⁻¹.
The molecule B7 had a Kd of 0.743 nM, a koff of 1.56e-05 s⁻¹ and a kon of 21000 M⁻¹ s⁻¹.
In the same order, the values of B8 are under 1.53 nM, under 1e-05 s⁻¹ and 6520 M⁻¹ s⁻¹.
Take B9: the Kd is under 1.56 nM, the koff is under 1e-05 s⁻¹ and the kon amounted to 6410 M⁻¹ s⁻¹.
In the same order, the values of B10 are 0.968 nM, 3.28e-05 s⁻¹ and 33900 M⁻¹ s⁻¹.
In the same order, the values of B11 are 0.608 nM, 1.41e-05 s⁻¹ and 23200 M⁻¹ s⁻¹.
In the case of B12, the Kd was under 0.731 nM, the koff is under 1e-05 s⁻¹ and the kon is 13700 M⁻¹ s⁻¹.
Molecule B13 gave a Kd of under 1.44 nM, a koff of under 1e-05 s⁻¹ and a kon of 6930 M⁻¹ s⁻¹.
On to B14, for which the Kd was under 0.492 nM, the koff was under 1e-05 s⁻¹ and the kon worked out at 20300 M⁻¹ s⁻¹.
The corresponding values for B15 are 1.17 nM, 1.81e-05 s⁻¹ and 15500 M⁻¹ s⁻¹.
In the same order, the values of B16 are under 0.696 nM, under 1e-05 s⁻¹ and 14400 M⁻¹ s⁻¹.
In the same order, the values of B17 are under 1.51 nM, under 1e-05 s⁻¹ and 6610 M⁻¹ s⁻¹.
Molecule B18 returned a Kd of 0.593 nM, a koff of 1.42e-05 s⁻¹ and a kon of 23900 M⁻¹ s⁻¹.
In the case of B19, the Kd was 1.37 nM, the koff was 1.31e-05 s⁻¹ and the kon turned out to be 9540 M⁻¹ s⁻¹.
Consider B20, for which the Kd came to 1.14 nM, the koff was 1.86e-05 s⁻¹ and the kon was 16300 M⁻¹ s⁻¹.
The corresponding values for B21 are 1.23 nM, 2.39e-05 s⁻¹ and 19400 M⁻¹ s⁻¹.

The values are drawn from article PMC10663500, “High-throughput analysis system of interaction kinetics for data-driven antibody design” (Scientific Reports, 2023).
